This data set concerns the molecule itself. The experiment in a line: two-hybrid; MaMTH (mammalian membrane split-ubiquitin two-hybrid) in MaMTH-modified HEK293T cells; bait fused to Cub-GAL4, prey fused to Nub; GAL4-driven luciferase normalised to Renilla.

B1: human PFKFB4 as MaMTH fusions (PFKFB4-Cub-GAL4 bait; PFKFB4-Nub prey) (enzyme, UniProt Q16877 1-469, looked up)
chain: MASPRELTQNPLKKIWMPYSNGRPALHACQRGVCMTNCPTLIVMVGLPARGKTYISKKLTRYLNWIGVPTREFNVGQYRRDVVKTYKSFEFFLPDNEEGLKIRKQCALAALRDVRRFLSEEGGHVAVFDATNTTRERRATIFNFGEQNGYKTFFVESICVDPEVIAANIVQVKLGSPDYVNRDSDEATEDFMRRIECYENSYESLDEDLDRDLSYIKIMDVGQSYVVNRVADHIQSRIVYYLMNIHVTPRSIYLCRHGESELNLKGRIGGDPGLSPRGREFAKSLAQFISDQNIKDLKVWTSQMKRTIQTAEALGVPYEQWKVLNEIDAGVCEEMTYEEIQDNYPLEFALRDQDKYRYRYPKGESYEDLVQRLEPVIMELERQENVLVICHQAVMRCLLAYFLDKAAEQLPYLKCPLHTVLKLTPVAYGCKVESIFLNVAAVNTHRDRPQNVDISRPPEEALVTVPAHQ
notes: 6-phosphofructo-2-kinase/fructose-2,6-biphosphatase 4 (PFKFB4), human, inserted in-frame into the MaMTH bait or prey vectors; One molecule for the differently tagged copies of the same protein; The bait copy carries Cub-GAL4; The prey copy carries Nub at its N- or C-terminus (both were tested against the PFKFB4 bait); also called hPFKFB4; source: MaMTH-modified HEK293T, transfected, in cells; not …
With B1, the “fold increase of luciferase expression over PFKFB4-Cub-GAL4 alone (Nub at the C-terminus of the prey)” value was 13 times and the “fold increase of luciferase expression over PFKFB4-Cub-GAL4 alone (Nub at the N-terminus of the prey)” value came to 5 times.

(Values after publication PMC9348664, “PFKFB4 interacts with ICMT and activates RAS/AKT signaling-dependent cell migration in melanoma” (Life Science Alliance, 2022).)
